Reference: the supplement of paper PMC7125110
± gives the standard error. Fewer inactive variants are shown than the library holds.

B1: glmS ribozyme (parent)
chain: AUAAAAGCGCCAGAACUACAGAAAUGUAGUUGACGAGGAGGAGGUUUAUCGAAUUUUCGGCGGAUGCCUCCAAA

Legend:
Settings in all cases: with glucosamine-6-phosphate
glucosamine-6-phosphate [1] = variants of: B1; assay: self-cleavage kobs at 40 uM GlcN6P; higher = faster cleavage; RNA array
Summary of the method: (§1)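 Ribozyme variants carrying barcodes were transcribed in situ on sequenced MiSeq chips by E. coli RNA polymerase and tracked at 37 °C with a hybridised Cy3 probe. They were exposed to 40 μM to 10 mM glucosamine-6-phosphate in HEPES/KCl/Mg(OAc)2 buffer. kobs came from exponential decay fits of normalised per-tile medians, and kcat and KM from weighted Michaelis–Menten fits.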

glucosamine-6-phosphate [2] = variants of: B1; assay: self-cleavage kobs at 160 uM GlcN6P; higher = faster cleavage; RNA array
Summary of the method: as §1

glucosamine-6-phosphate [3] = variants of: B1; assay: self-cleavage kobs at 640 uM GlcN6P; higher = faster cleavage; RNA array
Summary of the method: as §1

glucosamine-6-phosphate [4] = variants of: B1; assay: self-cleavage kobs at 2500 uM GlcN6P; higher = faster cleavage; RNA array
Summary of the method: as §1

glucosamine-6-phosphate [5] = variants of: B1; assay: self-cleavage kobs at 10000 uM GlcN6P; higher = faster cleavage; RNA array
Summary of the method: as §1

Variant	self-cleavage kobs at 40 uM GlcN6P (glucosamine-6-phosphate [1])	self-cleavage kobs at 160 uM GlcN6P (glucosamine-6-phosphate [2])	self-cleavage kobs at 640 uM GlcN6P (glucosamine-6-phosphate [3])	self-cleavage kobs at 2500 uM GlcN6P (glucosamine-6-phosphate [4])	self-cleavage kobs at 10000 uM GlcN6P (glucosamine-6-phosphate [5])
G37C G41U U54G	< 1e-05 s⁻¹	–	–	–	–
G9U U56G C71A	< 1e-05 s⁻¹	–	–	–	–
U65G C67A	7.27e-05 ± 1.2e-05 s⁻¹	0.000116 ± 1.9e-05 s⁻¹	0.000435 ± 6.7e-05 s⁻¹	0.00133 ± 0.0004 s⁻¹	0.00417 ± 0.0006 s⁻¹
C11U G32C A36G G62A C71G	< 1e-05 s⁻¹	–	< 1e-05 s⁻¹	–	–
A14G G59C	< 1e-05 s⁻¹	–	< 1e-05 s⁻¹	–	–
A6U G35C G51C U65G	< 1e-05 s⁻¹	–	–	–	–
C10A G43U U45A	< 1e-05 s⁻¹	–	< 1e-05 s⁻¹	< 1e-05 s⁻¹	–
C50U C61U	< 1e-05 s⁻¹	–	< 1e-05 s⁻¹	< 1e-05 s⁻¹	< 1e-05 s⁻¹
A12C G13A U65C C68U	< 1e-05 s⁻¹	–	–	–	–
G35A U47A G51U	< 1e-05 s⁻¹	–	–	–	–
G38U G43C U47C A53U U55A G59C	< 1e-05 s⁻¹	–	–	–	–
G41A G60A G62U C70A	< 1e-05 s⁻¹	–	–	–	–
G29U G43A G63A	< 1e-05 s⁻¹	–	–	–	–
A33U A64C	< 1e-05 s⁻¹	< 1e-05 s⁻¹	< 1e-05 s⁻¹	–	< 1e-05 s⁻¹
G41U U49A	< 1e-05 s⁻¹	–	< 1e-05 s⁻¹	–	< 1e-05 s⁻¹
G40C G44A	< 1e-05 s⁻¹	< 1e-05 s⁻¹	< 1e-05 s⁻¹	< 1e-05 s⁻¹	–
G41C U65G	< 1e-05 s⁻¹	< 1e-05 s⁻¹	< 1e-05 s⁻¹	–	–
A6G C10U G43C	< 1e-05 s⁻¹	–	< 1e-05 s⁻¹	–	–
C8A A12U A39G	< 1e-05 s⁻¹	–	< 1e-05 s⁻¹	–	< 1e-05 s⁻¹
A48U A64C C67U	< 1e-05 s⁻¹	–	< 1e-05 s⁻¹	–	< 1e-05 s⁻¹
C8A U49A	< 1e-05 s⁻¹	–	< 1e-05 s⁻¹	–	–
A12C U57A G62A	< 1e-05 s⁻¹	–	–	–	–
G9C A33U A52C	< 1e-05 s⁻¹	–	–	–	–
A53G C67A	0.000314 ± 3.3e-05 s⁻¹	–	0.00067 ± 0.00014 s⁻¹	0.000612 ± 0.00025 s⁻¹	0.00957 ± 0.0018 s⁻¹

Variant	self-cleavage kobs at 40 uM GlcN6P (glucosamine-6-phosphate [1])	self-cleavage kobs at 160 uM GlcN6P (glucosamine-6-phosphate [2])	self-cleavage kobs at 640 uM GlcN6P (glucosamine-6-phosphate [3])	self-cleavage kobs at 2500 uM GlcN6P (glucosamine-6-phosphate [4])	self-cleavage kobs at 10000 uM GlcN6P (glucosamine-6-phosphate [5])
G35A U56G	< 1e-05 s⁻¹	–	< 1e-05 s⁻¹	–	< 1e-05 s⁻¹
C16U C67U	0.000314 ± 3.3e-05 s⁻¹	0.000412 ± 0.00014 s⁻¹	0.00186 ± 0.00024 s⁻¹	0.00294 ± 0.00071 s⁻¹	0.0126 ± 0.0021 s⁻¹
G32A U47G U57G	< 1e-05 s⁻¹	–	–	–	–
U31C A33C A36G C71G	< 1e-05 s⁻¹	–	–	–	–
C10A A48U A52C A64G	< 1e-05 s⁻¹	–	–	–	–
U45C C50G	< 1e-05 s⁻¹	< 1e-05 s⁻¹	< 1e-05 s⁻¹	< 1e-05 s⁻¹	< 1e-05 s⁻¹
G41U G63C C70A	< 1e-05 s⁻¹	–	–	–	–
C11U C34G G41A U47G	< 1e-05 s⁻¹	–	< 1e-05 s⁻¹	< 1e-05 s⁻¹	< 1e-05 s⁻¹
G9C G51C	< 1e-05 s⁻¹	< 1e-05 s⁻¹	< 1e-05 s⁻¹	< 1e-05 s⁻¹	< 1e-05 s⁻¹
G44C C61U	< 1e-05 s⁻¹	< 1e-05 s⁻¹	< 1e-05 s⁻¹	< 1e-05 s⁻¹	< 1e-05 s⁻¹
G9C G32C	< 1e-05 s⁻¹	< 1e-05 s⁻¹	< 1e-05 s⁻¹	< 1e-05 s⁻¹	< 1e-05 s⁻¹
C50G G59U C67G	0.000108 ± 1.9e-05 s⁻¹	–	–	0.000245 ± 5.2e-05 s⁻¹	5.5e-05 ± 1.5e-05 s⁻¹
A15C G37U G40C U55G U65C U69C	< 1e-05 s⁻¹	–	–	–	–
A6C G43U	< 1e-05 s⁻¹	< 1e-05 s⁻¹	< 1e-05 s⁻¹	< 1e-05 s⁻¹	< 1e-05 s⁻¹
G13C G32C U47C	< 1e-05 s⁻¹	–	–	–	–
G37U A39G	< 1e-05 s⁻¹	–	–	< 1e-05 s⁻¹	–
A48C A52G	< 1e-05 s⁻¹	< 1e-05 s⁻¹	< 1e-05 s⁻¹	–	–
C16G C34G G60U C61G U65A C67G	8.29e-05 ± 1.8e-05 s⁻¹	–	–	0.000198 ± 6.9e-05 s⁻¹	–
C50G C71A	0.00184 ± 0.00076 s⁻¹	0.000128 ± 1.3e-05 s⁻¹	0.000215 ± 2e-05 s⁻¹	0.000153 ± 1.4e-05 s⁻¹	–
A6U A14U G35C A39U U55A C58A	< 1e-05 s⁻¹	–	–	< 1e-05 s⁻¹	< 1e-05 s⁻¹
G35U G37A	< 1e-05 s⁻¹	–	< 1e-05 s⁻¹	< 1e-05 s⁻¹	–
G40U A48G G59U	< 1e-05 s⁻¹	< 1e-05 s⁻¹	–	< 1e-05 s⁻¹	< 1e-05 s⁻¹
G32A A36C U45C C70U	< 1e-05 s⁻¹	–	–	–	< 1e-05 s⁻¹
C11A A14U A36U U46A	< 1e-05 s⁻¹	–	–	< 1e-05 s⁻¹	< 1e-05 s⁻¹

Variant	self-cleavage kobs at 40 uM GlcN6P (glucosamine-6-phosphate [1])	self-cleavage kobs at 160 uM GlcN6P (glucosamine-6-phosphate [2])	self-cleavage kobs at 640 uM GlcN6P (glucosamine-6-phosphate [3])	self-cleavage kobs at 2500 uM GlcN6P (glucosamine-6-phosphate [4])	self-cleavage kobs at 10000 uM GlcN6P (glucosamine-6-phosphate [5])
A15C A36G	< 1e-05 s⁻¹	< 1e-05 s⁻¹	< 1e-05 s⁻¹	< 1e-05 s⁻¹	< 1e-05 s⁻¹
C8A G40C	< 1e-05 s⁻¹	< 1e-05 s⁻¹	< 1e-05 s⁻¹	< 1e-05 s⁻¹	< 1e-05 s⁻¹
A14U C16U G29U C50A G62U	< 1e-05 s⁻¹	–	–	–	–
A12G C34G G38C A39C A42U G60C C71U	< 1e-05 s⁻¹	–	–	–	–
C8U G44U	< 1e-05 s⁻¹	< 1e-05 s⁻¹	< 1e-05 s⁻¹	< 1e-05 s⁻¹	< 1e-05 s⁻¹
A39G U45G A48G	< 1e-05 s⁻¹	–	–	–	6.43e-05 ± 1.9e-05 s⁻¹
G7U A48U	< 1e-05 s⁻¹	< 1e-05 s⁻¹	< 1e-05 s⁻¹	< 1e-05 s⁻¹	< 1e-05 s⁻¹
A48G U69A	< 1e-05 s⁻¹	–	–	–	–
C8U A42C	< 1e-05 s⁻¹	< 1e-05 s⁻¹	< 1e-05 s⁻¹	< 1e-05 s⁻¹	< 1e-05 s⁻¹
C50G C61A A64U	9.82e-05 ± 1.8e-05 s⁻¹	–	–	–	0.000113 ± 1.8e-05 s⁻¹
U49A G63C U69C	< 1e-05 s⁻¹	–	–	–	–
C16G C34A G38C U65C	< 1e-05 s⁻¹	–	–	–	–
G29C G62U	< 1e-05 s⁻¹	< 1e-05 s⁻¹	–	–	–
C16U G59C	< 1e-05 s⁻¹	–	< 1e-05 s⁻¹	–	< 1e-05 s⁻¹
G9A G13A	< 1e-05 s⁻¹	< 1e-05 s⁻¹	< 1e-05 s⁻¹	< 1e-05 s⁻¹	–
U30A G44U	< 1e-05 s⁻¹	–	–	–	–
G35C C61U	< 1e-05 s⁻¹	< 1e-05 s⁻¹	< 1e-05 s⁻¹	< 1e-05 s⁻¹	< 1e-05 s⁻¹
C16A U47C C50G G66A C67U U69G	7.74e-05 ± 2.6e-05 s⁻¹	–	–	–	4.24e-05 ± 1.6e-05 s⁻¹
G13U A52C	< 1e-05 s⁻¹	–	–	< 1e-05 s⁻¹	< 1e-05 s⁻¹
C16G A36G	< 1e-05 s⁻¹	< 1e-05 s⁻¹	< 1e-05 s⁻¹	–	< 1e-05 s⁻¹
A6C C11U	< 1e-05 s⁻¹	< 1e-05 s⁻¹	< 1e-05 s⁻¹	–	–
A53G U65C	3.6e-05 ± 1.8e-05 s⁻¹	–	0.000302 ± 7.9e-05 s⁻¹	0.000224 ± 9.5e-05 s⁻¹	0.000644 ± 0.00014 s⁻¹
C71U	0.00128 ± 3.7e-05 s⁻¹	0.00366 ± 0.00023 s⁻¹	0.00716 ± 0.00034 s⁻¹	0.0256 ± 0.0014 s⁻¹	0.0553 ± 0.0027 s⁻¹
G60U C61G	< 1e-05 s⁻¹	–	–	< 1e-05 s⁻¹	< 1e-05 s⁻¹

Variant	self-cleavage kobs at 40 uM GlcN6P (glucosamine-6-phosphate [1])	self-cleavage kobs at 160 uM GlcN6P (glucosamine-6-phosphate [2])	self-cleavage kobs at 640 uM GlcN6P (glucosamine-6-phosphate [3])	self-cleavage kobs at 2500 uM GlcN6P (glucosamine-6-phosphate [4])	self-cleavage kobs at 10000 uM GlcN6P (glucosamine-6-phosphate [5])
C10A C34G	< 1e-05 s⁻¹	–	< 1e-05 s⁻¹	< 1e-05 s⁻¹	< 1e-05 s⁻¹
A14G G51C	< 1e-05 s⁻¹	–	< 1e-05 s⁻¹	–	< 1e-05 s⁻¹
G7C U31A	< 1e-05 s⁻¹	–	< 1e-05 s⁻¹	< 1e-05 s⁻¹	< 1e-05 s⁻¹
C16A G43C A48G C67U	< 1e-05 s⁻¹	–	–	–	< 1e-05 s⁻¹
G7A A48C	< 1e-05 s⁻¹	< 1e-05 s⁻¹	< 1e-05 s⁻¹	–	< 1e-05 s⁻¹
A6C U46A U49A	< 1e-05 s⁻¹	< 1e-05 s⁻¹	< 1e-05 s⁻¹	< 1e-05 s⁻¹	–
A6U C16U G38A	< 1e-05 s⁻¹	–	< 1e-05 s⁻¹	< 1e-05 s⁻¹	–
G7U G29C	< 1e-05 s⁻¹	< 1e-05 s⁻¹	< 1e-05 s⁻¹	< 1e-05 s⁻¹	< 1e-05 s⁻¹
U65A C71A	5.65e-05 ± 2.4e-05 s⁻¹	–	–	0.0012 ± 0.00041 s⁻¹	0.00104 ± 0.00039 s⁻¹
A12G U27C G29U	< 1e-05 s⁻¹	–	< 1e-05 s⁻¹	< 1e-05 s⁻¹	–
C11U A33U C61G	< 1e-05 s⁻¹	–	–	–	–
C10U G13A A39U G60U	< 1e-05 s⁻¹	–	–	–	–
A12G G37C U46C A53G C68U	< 1e-05 s⁻¹	–	–	–	< 1e-05 s⁻¹
G7U U31A	< 1e-05 s⁻¹	< 1e-05 s⁻¹	< 1e-05 s⁻¹	< 1e-05 s⁻¹	< 1e-05 s⁻¹
C10G G37A G66U U69G C71A	< 1e-05 s⁻¹	< 1e-05 s⁻¹	–	–	–
A33C G63U	< 1e-05 s⁻¹	–	< 1e-05 s⁻¹	< 1e-05 s⁻¹	< 1e-05 s⁻¹
C10A G41C A48C C58G	< 1e-05 s⁻¹	–	–	–	–
G43U G63U	< 1e-05 s⁻¹	< 1e-05 s⁻¹	–	< 1e-05 s⁻¹	< 1e-05 s⁻¹
A14G A15C G41U C58U	< 1e-05 s⁻¹	–	–	–	< 1e-05 s⁻¹
G32C U57A	< 1e-05 s⁻¹	–	–	–	–
G29U G40C A52G	< 1e-05 s⁻¹	–	–	–	–
